Laboratory results as given in patent US20240108738A1 (Bicycle, published 2024).
Numbered stars: 1 amine (or outer) side, 2 acyl side, 3 side chain; on linkers, the order of the positions; unused ones are H or OH. Bridge positions count the residues as written; N and C are the ends. Square brackets hold non-standard residues; d marks the D form. Ends that are not written are not given here. * marks the point of attachment. TATA = O=C(CC[*:1])N1CN(C(=O)CC[*:2])CN(C(=O)CC[*:3])C1; Pent4ynoyl = C#CCCC(=O)*; PYA = not defined here

B1: BCY15452 (peptide)
peptide: ACYLPDYLCGDEYCAK
modifications: C-terminal D-Lys(PYA)
notes: scaffold TATA
B2: BCY15013 (peptide)
peptide: ACYLPDWLCGDEYCA[dK](Pent4ynoyl)-NH2
modifications: linker 2-9-14 via TATA; N-terminus assumed
SMILES: C#CCCC(=O)NCCCC[C@@H](NC(=O)[C@H](C)NC(=O)[C@@H]1CSCCC(=O)N2CN3CN(C2)C(=O)CCSC[C@H](NC(=O)[C@H](CC(C)C)NC(=O)[C@H](Cc2c[nH]c4ccccc24)NC(=O)[C@H](CC(=O)O)NC(=O)[C@@H]2CCCN2C(=O)[C@H](CC(C)C)NC(=O)[C@H](Cc2ccc(O)cc2)NC(=O)[C@@H](NC(=O)[C@H](C)N)CSCCC3=O)C(=O)NCC(=O)N[C@@H](CC(=O)O)C(=O)N[C@@H](CCC(=O)O)C(=O)N[C@@H](Cc2ccc(O)cc2)C(=O)N1)C(N)=O
notes: scaffold TATA
B3: BCY15687 (peptide)
peptide: ACNLQAPCMQTGKVCAK
modifications: C-terminal Lys(PYA)
notes: scaffold TATA
B4: BCY15686 (peptide)
peptide: ACDLTTHNCQWGICAK(PYA)
modifications: linker 2-9-14 via TATA (inferred); reading uncertain
notes: scaffold TATA
B5: BCY15921 (peptide)
peptide: ACDLTTHNCQWGICAK-NH2
modifications: linker 2-9-14 via TATA; not fully specified (residue 16); also: homodimer via shared N-(amine-PEG2)-N-bis(PEG3-azide) linker
notes: scaffold TATA
B6: BCY15455 (peptide)
peptide: ACYLPDWLCGDEYCA[dK](Pent4ynoyl)-NH2
modifications: linker 2-9-14 via TATA; not fully specified; also: AF488 label on linker
notes: homodimer of BCY15013; scaffold TATA
B7: BCY15663 (peptide)
peptide: ACYLPDYLCGDEYCAK
modifications: not fully specified; C-terminal D-Lys(PYA) joined to N-(amine-PEG2)-N-bis(PEG3-azide) linker carrying AF488
notes: homodimer of BCY15452; scaffold TATA
B8: BCY15922 (peptide)
peptide: ACNLQAPCMQTGKVCAK-NH2
modifications: linker 2-8-15 via TATA (inferred); not fully specified (residue 17); also: AF488 on linker
notes: homodimer of BCY15687; scaffold TATA

biological target: T1, recombinant human NKp46-Fc fusion biotinylated via Avi-tag (human, UniProt O76036 22-255, limits assumed, biotin on Avi-tag); experiment: SPR Method 1
T1 construct: also called biotinylated NKp46
T1 sequence (O76036 22-255 limits assumed): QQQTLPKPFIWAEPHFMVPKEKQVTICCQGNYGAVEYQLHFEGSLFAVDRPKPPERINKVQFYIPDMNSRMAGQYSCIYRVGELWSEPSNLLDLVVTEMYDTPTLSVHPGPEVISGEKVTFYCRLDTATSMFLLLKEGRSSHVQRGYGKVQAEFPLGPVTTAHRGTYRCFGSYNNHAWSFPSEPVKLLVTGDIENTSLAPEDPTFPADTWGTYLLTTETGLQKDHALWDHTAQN
Protocol: SPR experiments were performed to determine kₐ (M⁻¹s⁻¹), kd (s⁻¹), KD (nM) values (where measurable) of various bicyclic peptides to immobilised NKp46.
For analysis of peptide binding to NKp46, a Biacore 3000 instrument was used with a Cytiva Streptavidin chip. Capture of the protein (recombinant human NKp46-Fc fusion biotinylated via Avi-tag) was carried out at 25° C. with HBS-N (10 mM HEPES, 0.15 M NaCl, pH 7.4) as the running buffer and biotinylated NKp46 was captured to a level of 400-800 RU using a dilution of protein to 0.2 μM in buffer. Buffer was then changed to PBS/0.05% Tween 20 and a dilution series of the peptides was prepared in this buffer with a final DMSO concentration of 0.5% with a top peptide concentration of 100 nM-5000 nM and 6 further 2 or 3-fold dilutions. The SPR analysis was run at 25° C. and a flow rate of 50 μl/min with 60 seconds association and 200-400 seconds dissociation time. Data were corrected for DMSO excluded volume effects. All data were double-referenced for blank injections and reference surface using standard processing procedures and data processing and kinetic fitting were performed using Scrubber software, version 2.0c (BioLogic Software). Data were fitted using simple 1:1 binding model allowing for mass transport effects where appropriate.

Kd [nM] | Binder
27 | B1
138 | B2
960 | B3
276 | B4

biological target: T2, Human NKp46 Fc tag (Acro Biosystems, NC1-H5257) (human, UniProt O76036 22-255); experiment: SPR Method 1 and/or 2
T2 construct: bought; also called Fc-tagged human NKp46
T2 sequence (O76036 22-255 limits assumed): as above
Method in brief: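 Fc-tagged human NKp46 captured on anti-human IgG surface (500–1000 RU); compounds run in PBS-P+ with 2% DMSO at 25 °C, 50 μL/min, 60 s association, 400 s dissociation. Double-referenced, DMSO-corrected; KD from steady-state 1:1 fit, kinetic constants from kinetic 1:1 fit where appropriate.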

Kd [nM] | Binder
13 | B1
59 | B2
783 | B3

biological target: T3, human NKp46 on cells (CHO-K1/NKp46 cells; CD56+ NK cells of human PBMCs) (human, UniProt O76036 22-304); experiment: Kd,app, flow cytometry CHO-K1/NKp46
T3 construct: whole, on cells; also called NCR1; CD355
T3 sequence (O76036 22-304): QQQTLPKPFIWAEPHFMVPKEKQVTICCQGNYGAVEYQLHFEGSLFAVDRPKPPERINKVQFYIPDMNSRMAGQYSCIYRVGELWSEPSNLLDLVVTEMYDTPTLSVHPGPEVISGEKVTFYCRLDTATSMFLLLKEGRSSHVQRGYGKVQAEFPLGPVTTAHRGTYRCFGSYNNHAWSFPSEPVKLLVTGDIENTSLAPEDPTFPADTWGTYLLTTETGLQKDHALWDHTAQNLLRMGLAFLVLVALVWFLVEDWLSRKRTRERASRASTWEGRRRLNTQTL
Protocol: Plates were then incubated for 1 hour at room temperature in the dark. Post-incubation, the plates were centrifuged at 500 rpm for 5 minutes and supernatant discarded. Samples were then washed twice in 200 μL of 1× phosphate buffer saline (PBS; Gibco™ 10-010-023) at 500 rpm for 5 minutes. Cells were resuspended in 100 μL of PBS and transferred to a new 96-well V-bottom polypropylene plate (Greiner Bio-One 651201). Plates were centrifuged at 500 rpm for 5 minutes and supernatant discarded.
Preparation of samples for flow cytometry: Zombie Violet™ Fixable Viability Dye (BioLegend® 423113) was prepared as a 1:1000 dilution in PBS and 100 μL of viability dye was added to each well and incubated in the dark at 4° C. for 30 minutes. To ensure NKp46 expression, untreated CHO-K1/NKp46 cells were stained with either anti-human NKp46 or an isotype control. Antibody cocktails were prepared by diluting 1.5 μL of either, PE anti-human NKp46 (BioLegend® 331908; clone 9E2) or PE isotype control IgG1, K (BioLegend® 400112), per 100 μL of stain buffer (1×PBS supplemented with 2% FBS). Cells were resuspended in master mix cocktail (100 μL) and incubated at 4° C. for 30 minutes in the dark. Subsequently, cells were washed 3 times in 100 μL of stain buffer for 5 minutes at 500 rpm and supernatant was discarded. Cells resuspended in 200 μL of stain buffer were kept at 4° C. and in the dark until read by BD FACSCelesta™ flow cytometer.
The binding affinity of the bicyclic peptides were calculated using a four-parameter logistic regression using Prism GraphPad software.

Kd [nM] | Binder
1.48 | B5
2.25 | B6
0.3 | B7
1.48 | B8

biological target: T3, human NKp46 on cells (CHO-K1/NKp46 …); experiment: Kd,app, flow cytometry, total CD56 population of human PBMCs
Protocol: Cells were resuspended in master mix cocktail (100 μL) and incubated at 4° C. for 30 minutes in the dark. Subsequently, cells were washed 3 times in 100 μL of stain buffer for 5 minutes at 500 rpm and supernatant was discarded.

Kd [nM] | Binder
0.028 | B7
